Laboratory results as given in patent US20240002497A1.
Numbering of substitutions follows the chain as printed. Names may count otherwise.

What was measured:
[1] = molecular target: rhNav1.7α + β1-β2-β3 (rhesus Nav1.7α co-expressed with Navβ1, Navβ2 and Navβ3) (rhesus monkey); experiment: FACS, periplasmic extract, CHO Flp-In cells; SD MFI 18
[2] = molecular target: rhNav1.7α + β1-β2-β3 (rhesus Nav1.7α co-expressed with Navβ1, Navβ2 and Navβ3) (rhesus monkey); experiment: FACS, periplasmic extract, CHO Flp-In cells; SD MFI 6
[3] = molecular target: muNav1.7α (murine Nav1.7α) (murine) (UniProt Q62205); experiment: FACS, periplasmic extract, HEK Jmp-In cells; SD MFI 1
[4] = molecular target: muNav1.7α (murine Nav1.7α) (murine) (UniProt Q62205); experiment: FACS, periplasmic extract, HEK Jmp-In cells; SD MFI 61
[5] = molecular target: rhNav1.7α + β1-β2-β3 (rhesus Nav1.7α co-expressed with Navβ1, Navβ2 and Navβ3) (rhesus monkey); experiment: FACS, periplasmic extract, CHO Flp-In cells; SD MFI 20
[6] = molecular target: rhNav1.7α + β1-β2-β3 (rhesus Nav1.7α co-expressed with Navβ1, Navβ2 and Navβ3) (rhesus monkey); experiment: FACS, periplasmic extract, CHO Flp-In cells; SD MFI 0
[7] = molecular target: muNav1.7α (murine Nav1.7α) (murine) (UniProt Q62205); experiment: FACS, periplasmic extract, HEK Jmp-In cells; SD MFI 15
[8] = molecular target: rhNav1.7α + β1-β2-β3 (rhesus Nav1.7α co-expressed with Navβ1, Navβ2 and Navβ3) (rhesus monkey); experiment: FACS, periplasmic extract, CHO Flp-In cells; SD MFI 1
[9] = molecular target: muNav1.7α (murine Nav1.7α) (murine) (UniProt Q62205); experiment: FACS, periplasmic extract, HEK Jmp-In cells; SD MFI 8
[10] = molecular target: rhNav1.7α + β1-β2-β3 (rhesus Nav1.7α co-expressed with Navβ1, Navβ2 and Navβ3) (rhesus monkey); experiment: FACS, periplasmic extract, CHO Flp-In cells; SD MFI 2
[11] = molecular target: muNav1.7α (murine Nav1.7α) (murine) (UniProt Q62205); experiment: FACS, periplasmic extract, HEK Jmp-In cells; SD MFI 3361
[12] = molecular target: muNav1.7α (murine Nav1.7α) (murine) (UniProt Q62205); experiment: FACS, periplasmic extract, HEK Jmp-In cells; SD MFI 16
[13] = molecular target: rhNav1.7α + β1-β2-β3 (rhesus Nav1.7α co-expressed with Navβ1, Navβ2 and Navβ3) (rhesus monkey); experiment: FACS, periplasmic extract, CHO Flp-In cells; SD MFI 13
[14] = molecular target: huNav1.7α + β1-β2-β3 (human Nav1.7α co-expressed with Navβ1, Navβ2 and Navβ3) (human) (UniProt Q15858); experiment: FACS, periplasmic extract, CHO Flp-In cells; SD MFI 16
[15] = molecular target: muNav1.7α (murine Nav1.7α) (murine) (UniProt Q62205); experiment: FACS, periplasmic extract, HEK Jmp-In cells; SD MFI 12
[16] = molecular target: muNav1.7α (murine Nav1.7α) (murine) (UniProt Q62205); experiment: FACS, periplasmic extract, HEK Jmp-In cells; SD MFI 7
[17] = molecular target: rhNav1.7α + β1-β2-β3 (rhesus Nav1.7α co-expressed with Navβ1, Navβ2 and Navβ3) (rhesus monkey); experiment: FACS, periplasmic extract, CHO Flp-In cells; SD MFI 10
[18] = molecular target: muNav1.7α (murine Nav1.7α) (murine) (UniProt Q62205); experiment: FACS, periplasmic extract, HEK Jmp-In cells; SD MFI 19
[19] = molecular target: rhNav1.7α + β1-β2-β3 (rhesus Nav1.7α co-expressed with Navβ1, Navβ2 and Navβ3) (rhesus monkey); experiment: FACS, periplasmic extract, CHO Flp-In cells; SD MFI 8
[20] = molecular target: muNav1.7α (murine Nav1.7α) (murine) (UniProt Q62205); experiment: FACS, periplasmic extract, HEK Jmp-In cells; SD MFI 21
[21] = molecular target: muNav1.7α (murine Nav1.7α) (murine) (UniProt Q62205); experiment: FACS, periplasmic extract, HEK Jmp-In cells; SD MFI 23
[22] = molecular target: rhNav1.7α + β1-β2-β3 (rhesus Nav1.7α co-expressed with Navβ1, Navβ2 and Navβ3) (rhesus monkey); experiment: FACS, periplasmic extract, CHO Flp-In cells; SD MFI 33
[23] = molecular target: muNav1.7α (murine Nav1.7α) (murine) (UniProt Q62205); experiment: FACS, periplasmic extract, HEK Jmp-In cells; SD MFI 25
[24] = molecular target: rhNav1.7α + β1-β2-β3 (rhesus Nav1.7α co-expressed with Navβ1, Navβ2 and Navβ3) (rhesus monkey); experiment: FACS, periplasmic extract, CHO Flp-In cells; SD MFI 22
[25] = molecular target: muNav1.7α (murine Nav1.7α) (murine) (UniProt Q62205); experiment: FACS, periplasmic extract, HEK Jmp-In cells; SD MFI 5
[26] = molecular target: rhNav1.7α + β1-β2-β3 (rhesus Nav1.7α co-expressed with Navβ1, Navβ2 and Navβ3) (rhesus monkey); experiment: FACS, periplasmic extract, CHO Flp-In cells; SD MFI 30
[27] = molecular target: rhNav1.7α + β1-β2-β3 (rhesus Nav1.7α co-expressed with Navβ1, Navβ2 and Navβ3) (rhesus monkey); experiment: FACS, periplasmic extract, CHO Flp-In cells; SD MFI 4
[28] = molecular target: muNav1.7α (murine Nav1.7α) (murine) (UniProt Q62205); experiment: FACS, periplasmic extract, HEK Jmp-In cells; SD MFI 0
[29] = molecular target: muNav1.7α (murine Nav1.7α) (murine) (UniProt Q62205); experiment: FACS, periplasmic extract, HEK Jmp-In cells; SD MFI 123
[30] = molecular target: huNav1.5-β1-β2-β3 (human) (UniProt Q14524); experiment: FACS, CHO Flp-In, competitor 1 µM IRR00092
[31] = molecular target: huNav1.5-β1-β2-β3 (human) (UniProt Q14524); experiment: FACS, CHO Flp-In, competitor 1 µM F010300703
[32] = molecular target: huNav1.5-β1-β2-β3 (human) (UniProt Q14524); experiment: binding FACS, HEK Flp-In
[33] = molecular target: huNav1.5-β1-β2-β3 (human) (UniProt Q14524); experiment: binding FACS, CHO Flp-In, periplasmic extract

B1: F0103464B09 N99A library variant (VHH, name in Kabat numbering)
VHH: EVQLVESGGGLVQPGGSLRLSCATTSRAFIRDVFTGWYRRVPGKERELVARIYNGGNTNYADFAKGRFSISRDNAKKMVTLRMSNLKPEDTGVYYCLFSGTIATGREYRSGDYWGQGTLVTVSS
B1 gave a Mean MFI [1] of 611 MFI.

B2: F0103464B09 N99F library variant (VHH, name in Kabat numbering)
VHH: B1 VHH with A103F
B2 gave a Mean MFI [2] of 516 MFI and a Mean MFI [3] of 938 MFI.

B3: F0103464B09 N99Y library variant (VHH, name in Kabat numbering)
VHH: B1 VHH with A103Y
B3 gave a Mean MFI [4] of 936 MFI and a Mean MFI [5] of 490 MFI.

B4: F0103464B09 N99M library variant (VHH, name in Kabat numbering)
VHH: B1 VHH with A103M
B4 gave a Mean MFI [6] of 523 MFI and a Mean MFI [7] of 936 MFI.

B5: F0103464B09 N99K library variant (VHH, name in Kabat numbering)
VHH: B1 VHH with A103K
Binder B5 has a Mean MFI [8] of 537 MFI and a Mean MFI [9] of 923 MFI.

B6: F0103464B09 N99W library variant (VHH, name in Kabat numbering)
VHH: B1 VHH with A103W
In the case of B6, the Mean MFI [10] is reported as 530 MFI and the Mean MFI [11] is reported as 3320 MFI.

B7: F0103464B09 T100D library variant (VHH, name in Kabat numbering)
VHH: B1 VHH with A103N, T104D
B7 was tested, and the Mean MFI [8] was 526 MFI.

B8: F0103464B09 T100V library variant (VHH, name in Kabat numbering)
VHH: B1 VHH with A103N, T104V
Binder B8 has a Mean MFI [12] of 1680 MFI and a Mean MFI [13] of 564 MFI.

B9: F0103464B09 N99P library variant (VHH, name in Kabat numbering)
VHH: B1 VHH with A103P
B9 gave a Mean MFI [14] of 612 MFI, a Mean MFI [15] of 912 MFI and a Mean MFI [5] of 554 MFI.

B10: F0103464B09 N99I library variant (VHH, name in Kabat numbering)
VHH: B1 VHH with A103I
For B10, the Mean MFI [2] was 540 MFI and the Mean MFI [16] was 946 MFI.

B11: F0103464B09 N99L library variant (VHH, name in Kabat numbering)
VHH: B1 VHH with A103L
B11 was tested, and the Mean MFI [17] was 536 MFI and the Mean MFI [18] was 919 MFI.

B12: F0103464B09 N99E library variant (VHH, name in Kabat numbering)
VHH: B1 VHH with A103E
B12 was tested, and the Mean MFI [2] was 528 MFI and the Mean MFI [3] was 938 MFI.

B13: F0103464B09 N99G library variant (VHH, name in Kabat numbering)
VHH: B1 VHH with A103G
For B13, the Mean MFI [19] was 530 MFI and the Mean MFI [20] was 956 MFI.

B14: F0103464B09 T100E library variant (VHH, name in Kabat numbering)
VHH: B1 VHH with A103N, T104E
With B14 the Mean MFI [21] was 973 MFI and the Mean MFI [22] was 518 MFI.

B15: F0103464B09 N99C library variant (VHH, name in Kabat numbering)
VHH: B1 VHH with A103C
Work on B15 yielded a Mean MFI [2] of 528 MFI and a Mean MFI [23] of 930 MFI.

B16: F0103464B09 N99T library variant (VHH, name in Kabat numbering)
VHH: B1 VHH with A103T
B16 gave a Mean MFI [24] of 839 MFI.

B17: F0103464B09 N99R library variant (VHH, name in Kabat numbering)
VHH: B1 VHH with A103R
B17 showed a Mean MFI [6] of 572 MFI and a Mean MFI [25] of 975 MFI.

B18: F0103464B09 T100F library variant (VHH, name in Kabat numbering)
VHH: B1 VHH with A103N, T104F
B18 gave a Mean MFI [18] of 997 MFI and a Mean MFI [26] of 533 MFI.

B19: F0103464B09 T100H library variant (VHH, name in Kabat numbering)
VHH: B1 VHH with A103N, T104H
B19 was tested, and the Mean MFI [27] was 689 MFI.

B20: F0103464B09 N99V library variant (VHH, name in Kabat numbering)
VHH: B1 VHH with A103V
B20 gave a Mean MFI [2] of 552 MFI and a Mean MFI [12] of 952 MFI.

B21: F0103464B09 N99D library variant (VHH, name in Kabat numbering)
VHH: B1 VHH with A103D
Binder B21 has a Mean MFI [26] of 520 MFI and a Mean MFI [28] of 929 MFI.

B22: F0103464B09 N99Q library variant (VHH, name in Kabat numbering)
VHH: B1 VHH with A103Q
With B22 the Mean MFI [17] was 546 MFI and the Mean MFI [29] was 1490 MFI.

B23: F0103PMP492E09 (bispecific antibody)
chain: EVQLVESGGGLVQPGGSLRLSCAASGSIFNINSMAWYRRAPGKQRELVASSTNGGSTNYADSVKGRFTISRDNAKRVYLQMNSLTPEDTAVYYCRALLQPSIYDISRTYWGQGTLVTVSSGGGGSGGGGSGGGGSGGGGSGGGGSGGGGSGGGGSGGGGSGGGGSGGGGSEVQLVESGGGLVQAGGSLRLSCAASKSILSFAYMRWYRQAPGKQREFVASIAIGGATSYTDSVKGRFTISRDNAKNTVYLQMNSLKPEDTAVYYCSAPAGQYRGQGTLVTVSSAAADYKDHDGDYKDHDIDYKDDDDKGAAHHHHHHKAAGGGGG
B23 gave an MFI [30] of 1860 MFI, an MFI [31] of 825 MFI and an MFI [32] of 1660 MFI. The MFI [33] was 559 MFI.

B24: F0103PMP478E09 (bispecific antibody)
chain: EVQLVESGGGLVQPGGSLRLSCAASGSIFNINSMAWYRRAPGKQRELVASSTNGGSTNYADSVKGRFTISRDNAKRVYLQMNSLTPEDTAVYYCRALLQPSIYDISRTYWGQGTLVTVSSGGGGSGGGGSGGGGSGGGGSGGGGSGGGGSGGGGSGGGGSGGGGSGGGGSEVQLVESGGGLVQAGGSLRLSCAASGRAFSTLAMGWFRQAPGKEREFVAAISRNGNNSATGDSLKGRFTISRDSTKSTVFLQMNTLKPEDTAVYYCAAISTPSASHPYVRKESYRYWGQGTQVTVSSAAADYKDHDGDYKDHDIDYKDDDDKGAAHHHHHHKAAGGGGG
For B24, the MFI [30] was 2060 MFI, the MFI [31] was 833 MFI and the MFI [32] was 877 MFI. It also gave an MFI [33] of 1080 MFI.
